Results on five substances are retold here after paper PMC3744425.

The assay addresses Ubiquitin-7-amino-4-methylcoumarin (human) (UniProt P0CG48).

Take “TYMV PRO I847D mutant, N-terminally 6-histidine tagged (enzyme)”: the Kapp (apparent kcat/Km) of Ub-AMC hydrolysis, far from saturating conditions amounted to 14 M⁻¹ s⁻¹.
Regarding “TYMV PRO I847A mutant, N-terminally 6-histidine tagged (enzyme)”, the Kapp (apparent kcat/Km) of Ub-AMC hydrolysis, far from saturating conditions was determined as 215 M⁻¹ s⁻¹.
The value for “TYMV PRO E759G/N760G mutant, N-terminally 6-histidine tagged (enzyme)” was 2060 M⁻¹ s⁻¹; that for “TYMV PRO L732A/L765A mutant, N-terminally 6-histidine tagged (enzyme)” was 2510 M⁻¹ s⁻¹; that for “Turnip yellow mosaic virus (TYMV) PRO domain, N-terminally 6-histidine tagged, wild type (enzyme)” was 2650 M⁻¹ s⁻¹.
